The results in this text go back to publication PMC11601597 (bioRxiv, 2024).

Data set [1] has as its target K. pneumoniae OqxB (K. pneumoniae). Put plainly: crystal structure.
Data set [2] shares this target. Description: cryo-EM structure.
The data set “cryo-EM structure” concerns the molecule itself. Description: cryo-EM structure.
The data set “crystal structure” concerns the molecule itself. Description: crystal structure.

Substitutions are numbered along the chain they refer to. In names and notes the source's numbering stands.

In general, stoichiometry N refers to the number of molecules, sites or subunits per partner or assembly.

Take K. pneumoniae OqxB (natural protein): the stoichiometry N in data set [1] and in data set [2] was 3 each time.

B1: E. coli AcrB V612F (natural protein)
chain: MPNFFIDRPIFAWVIAIIIMLAGGLAILKLPVAQYPTIAPPAVTISASYPGADAKTVQDTVTQVIEQNMNGIDNLMYMSSNSDSTGTVQITLTFESGTDADIAQVQVQNKLQLAMPLLPQEVQQQGVSVEKSSSSFLMVVGVINTDGTMTQEDISDYVAANMKDAISRTSGVGDVQLFGSQYAMRIWMNPNELNKFQLTPVDVITAIKAQNAQVAAGQLGGTPPVKGQQLNASIIAQTRLTSTEEFGKILLKVNQDGSRVLLRDVAKIELGGENYDIIAEFNGQPASGLGIKLATGANALDTAAAIRAELAKMEPFFPSGLKIVYPYDTTPFVKISIHEVVKTLVEAIILVFLVMYLFLQNFRATLIPTIAVPVVLLGTFAVLAAFGFSINTLTMFGMVLAIGLLVDDAIVVVENVERVMAEEGLPPKEATRKSMGQIQGALVGIAMVLSAVFVPMAFFGGSTGAIYRQFSITIVSAMALSVLVALILTPALCATMLKPIAKGDHGEGKKGFFGWFNRMFEKSTHHYTDSVGGILRSTGRYLVLYLIIVVGMAYLFVRLPSSFLPDEDQGVFMTMVQLPAGATQERTQKVLNEVTHYYLTKEKNNVESVFAFNGFGFAGRGQNTGIAFVSLKDWADRPGEENKVEAITMRATRAFSQIKDAMVFAFNLPAIVELGTATGFDFELIDQAGLGHEKLTQARNQLLAEAAKHPDMLTSVRPNGLEDTPQFKIDIDQEKAQALGVSINDINTTLGAAWGGSYVNDFIDRGRVKKVYVMSEAKYRMLPDDIGDWYVRAADGQMVPFSAFSSSRWEYGSPRLERYNGLPSMEILGQAAPGKSTGEAMELMEQLASKLPTGVGYDWTGMSYQERLSGNQAPSLYAISLIVVFLCLAALYESWSIPFSVMLVVPLGVIGALLAATFRGLTNDVYFQVGLLTTIGLSAKNAILIVEFAKDLMDKEGKGLIEATLDAVRMRLRPILMTSLAFILGVMPLVISTGAGSGAQNAVGTGVMGGMVTATVLAIFFVPVFFVVVRRRFSRKNEDIEHSHTVDHH
On to B1, for which the “stoichiometry N” value in “cryo-EM structure” came to 3.

B2: E. coli AcrB V612N (natural protein)
chain: B1 chain with F612N
As for B2, the “stoichiometry N” value in the data set “crystal structure” turned out to be 3.

B3: E. coli AcrB V612W (natural protein)
chain: B1 chain with F612W
In the case of B3, in “cryo-EM structure”, the “stoichiometry N” value was 3.
